Target: the molecule itself
Assay: SEC + other: diffusion NMR

B1: full-length, wild-type phosphate starvation response like protein-4 (PHL4) (natural protein, Arabidopsis, UniProt Q8GXC2 1-397, looked up)
chain: MIPNDDDDANSMKNYPLNDDDANSMKNYPLNDDDANSMENYPLRSIPTELSHTCSLIPPSLPNPSEAAADMSFNSELNQIMARPCDMLPANGGAVGHNPFLEPGFNCPETTDWIPSPLPHIYFPSGSPNLIMEDGVIDEIHKQSDLPLWYDDLITTDEDPLMSSILGDLLLDTNFNSASKVQQPSMQSQIQQPQAVLQQPSSCVELRPLDRTVSSNSNNNSNSNNAAAAAKGRMRWTPELHEVFVDAVNQLGGSNEATPKGVLKHMKVEGLTIFHVKSHLQKYRTAKYIPVPSEGSPEARLTPLEQITSDDTKRGIDITETLRIQMEHQKKLHEQLESLRTMQLRIEEQGKALLMMIEKQNMGFGGPEQGEKTSAKTPENGSEESESPRPKRPRNEE
stoichiometry N: 4

Source: publication PMC11244893 (bioRxiv, 2024)
